In doi:10.1101/444570 (bioRxiv, 2018):

What was measured:
[1] = target: COMA complex (Ame1/Okp1/Ctf19/Mcm21) (S. cerevisiae (budding yeast), UniProt P38313;P53298;Q02732;Q06675); assay: cross-linking
[2] = target: Ctf19/Mcm21 heterodimer (wild type) (S. cerevisiae (budding yeast), UniProt Q02732;Q06675); assay: pull-down
Ctf19/Mcm21 heterodimer (wild type), sequence (Q02732 whole entry, chain 1 of 2): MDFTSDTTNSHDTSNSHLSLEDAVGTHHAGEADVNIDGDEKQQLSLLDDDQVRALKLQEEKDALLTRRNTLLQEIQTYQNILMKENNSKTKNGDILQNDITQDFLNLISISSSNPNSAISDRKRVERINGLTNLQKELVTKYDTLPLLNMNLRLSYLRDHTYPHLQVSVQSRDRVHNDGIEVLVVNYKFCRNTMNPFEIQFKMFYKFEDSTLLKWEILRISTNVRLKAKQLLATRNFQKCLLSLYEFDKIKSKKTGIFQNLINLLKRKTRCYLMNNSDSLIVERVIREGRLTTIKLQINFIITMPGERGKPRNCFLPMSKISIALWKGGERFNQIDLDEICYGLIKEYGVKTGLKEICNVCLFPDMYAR
Ctf19/Mcm21 heterodimer (wild type), sequence (Q06675 whole entry, chain 2 of 2): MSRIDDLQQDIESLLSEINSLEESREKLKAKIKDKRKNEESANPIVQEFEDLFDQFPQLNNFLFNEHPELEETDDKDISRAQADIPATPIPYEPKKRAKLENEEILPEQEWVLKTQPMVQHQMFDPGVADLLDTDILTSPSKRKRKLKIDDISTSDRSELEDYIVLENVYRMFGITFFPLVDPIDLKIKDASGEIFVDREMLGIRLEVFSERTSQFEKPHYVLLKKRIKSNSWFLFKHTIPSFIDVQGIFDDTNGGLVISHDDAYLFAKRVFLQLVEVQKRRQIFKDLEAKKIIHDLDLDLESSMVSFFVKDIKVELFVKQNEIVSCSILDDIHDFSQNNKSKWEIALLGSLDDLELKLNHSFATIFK

COMA complex (Ame1/Okp1/Ctf19/Mcm21), sequence (P38313 whole entry, chain 1 of 4): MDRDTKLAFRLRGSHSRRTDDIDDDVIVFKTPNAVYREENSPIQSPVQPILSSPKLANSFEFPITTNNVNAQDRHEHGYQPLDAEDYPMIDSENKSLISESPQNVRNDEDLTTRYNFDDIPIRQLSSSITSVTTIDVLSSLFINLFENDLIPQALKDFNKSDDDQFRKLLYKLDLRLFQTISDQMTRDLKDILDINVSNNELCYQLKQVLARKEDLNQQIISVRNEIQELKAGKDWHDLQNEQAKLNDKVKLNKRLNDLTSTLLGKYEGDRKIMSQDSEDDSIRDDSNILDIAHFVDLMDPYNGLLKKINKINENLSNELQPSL
COMA complex (Ame1/Okp1/Ctf19/Mcm21), sequence (P53298 whole entry, chain 2 of 4): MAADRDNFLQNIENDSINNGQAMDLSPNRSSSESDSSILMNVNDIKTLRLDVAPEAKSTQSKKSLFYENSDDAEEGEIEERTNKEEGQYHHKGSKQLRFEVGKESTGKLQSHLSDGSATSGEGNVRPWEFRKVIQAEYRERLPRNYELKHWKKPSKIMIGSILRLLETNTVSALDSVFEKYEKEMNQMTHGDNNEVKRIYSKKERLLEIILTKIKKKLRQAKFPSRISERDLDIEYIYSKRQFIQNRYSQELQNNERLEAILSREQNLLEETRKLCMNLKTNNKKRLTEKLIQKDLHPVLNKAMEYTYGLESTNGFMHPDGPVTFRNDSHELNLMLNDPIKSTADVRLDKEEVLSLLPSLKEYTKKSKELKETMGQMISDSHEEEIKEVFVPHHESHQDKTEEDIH
COMA complex (Ame1/Okp1/Ctf19/Mcm21), sequence (Q02732 whole entry, chain 3 of 4): as the sequence (Q02732 whole entry, chain 1 of 2) above
COMA complex (Ame1/Okp1/Ctf19/Mcm21), sequence (Q06675 whole entry, chain 4 of 4): as the sequence (Q06675 whole entry, chain 2 of 2) above

Binder | binding result [1] | binding result [2]
Sli15-2xStrep/Ipl1 (wild type, not phosphorylated) (complex) chain 1: MDWAIKAARKKTQRKPGSTRSIIETLDDLNNLTTDAHSEINQRLYESSEWLRNNVYMNTLKYEDKKMEESLISPENTHNKMDVEFPKMKGEYELSNSQNDAAKDVTKTPRNGLHNDKSITPKSLRRKEVTEGMNRFSIHDTNKSPVEPLNSVKVDANESEKSSPWSPYKVEKVLRESSKTSESPINTKRFDNQTWAAKEEMENEPILQALKKAESVKVKPPPNSGIARSQRRSNMFVPLPNKDPLIIQHIPPTKSSGSIPKVRTVKESPIAFKKKSTINSPAIRAVENSDTAGSTKASSVFDRLSSIPTKSFENKISRGNVGHKYSSSSIDLTGSPMKKVSQKFKSINSTDTDMQEALRDIFSVKNKITKNNSPKGKNSRKSSIPRFDKTSLKLTTHKKLAIIAEQKKKSKHSSDVHKTGSRPHSISPTKISVDSSSPSKEVKNYYQSPVRGYLRPTKASISPNKNKNLTTSQTPHRLKIKEKTLRKLSPNIADISKPESRKSKNYRLTNLQLLPPAEAERDDLKKKFDKRLSGIMRSQQEHHRRKQEKQKRMSHLEQDLKKQTSFSNDYKDIRLKESLAPFDNHVRDTINKNTAFSTDNILATINTVDHREIIGNVTPKIASVNDSLPEINTDSEDEASVTLAAWAKSPYLQEQLIRQQDINPQTIFGPIPPLHTDEIFPNPRLNRLKPRQIVPKRS chain 2: MQRNSLVNIKLNANSPSKKTTTRPNTSRINKPWRISHSPQQRNPNSKIPSPVREKLNRLPVNNKKFLDMESSKIPSPIRKATSSKMIHENKKLPKFKSLSLDDFELGKKLGKGKFGKVYCVRHRSTGYICALKVMEKEEIIKYNLQKQFRREVEIQTSLNHPNLTKSYGYFHDEKRVYLLMEYLVNGEMYKLLRLHGPFNDILASDYIYQIANALDYMHKKNIIHRDIKPENILIGFNNVIKLTDFGWSIINPPENRRKTVCGTIDYLSPEMVESREYDHTIDAWALGVLAFELLTGAPPFEEEMKDTTYKRIAALDIKMPSNISQDAQDLILKLLKYDPKDRMRLGDVKMHPWILRNKPFWENKRL | binds | –
Sli15∆N2-370-2xStrep/Ipl1 (complex) chain 1: MNNSPKGKNSRKSSIPRFDKTSLKLTTHKKLAIIAEQKKKSKHSSDVHKTGSRPHSISPTKISVDSSSPSKEVKNYYQSPVRGYLRPTKASISPNKNKNLTTSQTPHRLKIKEKTLRKLSPNIADISKPESRKSKNYRLTNLQLLPPAEAERDDLKKKFDKRLSGIMRSQQEHHRRKQEKQKRMSHLEQDLKKQTSFSNDYKDIRLKESLAPFDNHVRDTINKNTAFSTDNILATINTVDHREIIGNVTPKIASVNDSLPEINTDSEDEASVTLAAWAKSPYLQEQLIRQQDINPQTIFGPIPPLHTDEIFPNPRLNRLKPRQIVPKRS chain 2: MQRNSLVNIKLNANSPSKKTTTRPNTSRINKPWRISHSPQQRNPNSKIPSPVREKLNRLPVNNKKFLDMESSKIPSPIRKATSSKMIHENKKLPKFKSLSLDDFELGKKLGKGKFGKVYCVRHRSTGYICALKVMEKEEIIKYNLQKQFRREVEIQTSLNHPNLTKSYGYFHDEKRVYLLMEYLVNGEMYKLLRLHGPFNDILASDYIYQIANALDYMHKKNIIHRDIKPENILIGFNNVIKLTDFGWSIINPPENRRKTVCGTIDYLSPEMVESREYDHTIDAWALGVLAFELLTGAPPFEEEMKDTTYKRIAALDIKMPSNISQDAQDLILKLLKYDPKDRMRLGDVKMHPWILRNKPFWENKRL | – | binds
